Changes are numbered by the printed parent chain. Entries after “also recorded” stand apart in the source; their conditions may differ. Square brackets hold non-standard residues; d marks the D form. Ends that are not written are not given here. pY = N[C@@H](Cc1ccc(OP(=O)(O)O)cc1)C(=O)O
Tests used:
[1] = biological target: T1, PTP-Sap1 (Homo sapiens, UniProt Q9HD43, D986A); experiment: ELISA of phosphorylated phage clones on coated GST-PTP; assay type: binding; settings: PTP-Sap1 selected phage clones, src-phosphorylated
T1 construct: These two restriction sites were used to clone the catalytic domain in frame into a pGEX4TK vector (Pharmacia); made in house; host or cells: Escherichia coli BL21 (codon +)
T1 sequence (Q9HD43 820-1079 D986A limits assumed): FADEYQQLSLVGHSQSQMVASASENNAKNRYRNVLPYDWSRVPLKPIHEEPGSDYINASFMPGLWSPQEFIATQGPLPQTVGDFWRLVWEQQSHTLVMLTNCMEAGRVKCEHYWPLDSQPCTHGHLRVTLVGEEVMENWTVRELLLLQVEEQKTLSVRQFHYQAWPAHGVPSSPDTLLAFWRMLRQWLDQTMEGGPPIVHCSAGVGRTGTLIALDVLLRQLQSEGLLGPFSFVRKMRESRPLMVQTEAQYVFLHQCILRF
Method: (§1) Single clones were amplified as described previously. The coating was done with GST-PTP or GST alone in PBS (2 μg per well in a 96 well plate format). Phosphorylation of the phages was performed following the described protocol (with and without 3 U of src kinase, in order to check the phospho-Tyr specificity of the recognition, thus be sure that positives were catalytic domain specific as shown in (30)) and during this process, each well was blocked with a solution of 5% fat free powder milk in PBS. Wells were washed 5 times in PBS-Tween® 0.5% and phages were incubated with the PTP-GST or GST in 100 μl Trapping Buffer (20 mM Tris pH 7.5, 150 mM NaCl and 1 mM EDTA) for 2 hours at 4° C. Wells were extensively washed and blocked for 1 hour in PBS-5% Milk.

[2] = test system: PTP-Sap1 R88N; experiment: SPOT analysis, membrane peptides probed with radiolabeled PTP; assay type: binding; settings: 15-mer peptides with phosphotyrosine on membrane
Method: (§2) Labelling of GST-PTP for the SPOT analysis was performed as follows: 2 to 5 μg of GST fusion proteins were bound to glutathion-sepharose beads (Amersham Pharmacia Biotech) at 4° C. After washes GST fusion proteins were radiolabeled by 50 units of protein kinase from bovine heart (Sigma) in presence of 35 μCi of (γ-32P) ATP in PKA buffer (20 mM Tris pH 7.5, 100 mM NaCl, 12 mM MgCl2, 1 mM DTT) for 30 minutes on ices. After washes, fusion proteins were eluted from beads by 10 mM free glutathione in 50 mM Tris, pH 8.0 (28).
(§3) Peptides were manually synthesized on derivatized cellulose membrane provided by Sigma-Genosys, which also provided the 20 Fmoc-amino acids active esters. Fmoc-phosphotyrosines from Novabiochem (#04-12-1156) were incorporated in presence of the coupling reagent, N,N′-Diisopropylcarbodiimide (DIC; Sigma) and hydroxybenzotriale (HOBt; Fluka; Espanel et al., submitted).
(§4) Membranes were blocked (at least 2 hours) and probed at 4° C. in Western wash buffer (10 mM Tris, pH 7.4, 0.1% Triton X-100 and 150 mM NaCl)+SPOT blocking buffer (Sigma-Genosys). After 2 hours, membranes were washed several times in Western wash buffer and were autoradiographed.

[3] = biological target: T2, PTP-1B DA (trapping mutant) (Homo sapiens, UniProt P18031, D181A); experiment: as above; assay type: binding; settings: for SPOT binding to PTP1B trapping mutant, double phosphorylated peptide: two phosphorylated Tyr, compared with single ones; for SPOT binding to PTP1B trapping mutant: 15-mer peptides with phospho-Tyr on membrane
T2 construct: specific primers corresponding to the beginning and the end of the catalytic domain of every PTPs were used; made in house; host or cells: Escherichia coli BL21 (codon +)
T2 sequence (P18031 3-277 D181A limits assumed): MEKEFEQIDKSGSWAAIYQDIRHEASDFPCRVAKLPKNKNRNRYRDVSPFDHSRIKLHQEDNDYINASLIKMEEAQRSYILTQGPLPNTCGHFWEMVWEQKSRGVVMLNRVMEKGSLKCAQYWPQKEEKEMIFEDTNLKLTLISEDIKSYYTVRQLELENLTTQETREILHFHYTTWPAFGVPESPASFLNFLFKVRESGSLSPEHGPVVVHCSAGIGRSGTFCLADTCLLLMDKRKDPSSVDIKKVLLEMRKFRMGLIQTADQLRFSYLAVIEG
Method: as §2, §3, §4

[4] = biological target: T3, PTP1B trapping mutant (Homo sapiens, UniProt P18031, D181A); experiment: Panning of the tyrosine-biased phage library and sequencing of trapped clones; assay type: binding; settings: after three pannings, sequenced trapped phages
T3 construct: These two restriction sites were used to clone the catalytic domain in frame into a pGEX4TK vector (Pharmacia); made in house; host or cells: Escherichia coli BL21 (codon +)
T3 sequence (P18031 3-277 D181A limits assumed): T2 sequence (P18031 3-277 D181A limits assumed)
Method: (§5) Phages (10^9-10^10) were incubated for three hours at 30° C. in the kinase buffer (25 mM Tris pH7.5, 5 mM MgCl2, 2.5 mM MnCl2, 2.5 mM DTT and 1 mM ATP) in a total volume of 20 μl. […] Therefore, the total library was phosphorylated and passed through an antiPTyr column (Upstate). The bound phages were eluted with phenylphosphate, and the clones were passed twice again in the column. The amplified Tyrosine-carrying phages were then stocked at 4° C. in TE and used for the trapping experiment (see below). […] Furthermore, no sequences were found twice. […] This was checked following our phosphorylation protocol and using (γ-32P) ATP as a tracer.
(§6) Phages (10^8 to 10^9) were incubated in kinase buffer (20 mM Tris pH7.5, 5 mM MgCl2, 2.5 mM MnCl2, 1 mM ATP, 2.5 mM DTT and with or without 3 Units of src kinase) for 3 hours at 30° C. The p60src, purified from Baculovirus, was purchased from Upstate Biotech. Gluthation-Sepharose beads were pre-coated with 3 μg of either GST or PTP-GST for 4 hours at 4° C. in a solution of Trapping Buffer (20 mM Tris pH 7.5, 150 mM NaCl and 1 mM EDTA) with 1% BSA final. The phages were first pre-cleared using GST-beads for 30 minutes at 4° C., spun down and the supernatant was incubated with the coated PTP-GST for 1.5 hours at 4° C. with a constant shaking. Finally beads were spun down and washed several times (5 times for the first panning, then 10 times) with a solution of PBS with 0.25% Tween® final. Phages were eluted from PTP-GST by an acidic treatment (glycine buffer, pH 2.7) for 10 minutes at RT with a constant shaking, beads were spun down and phages were recovered in the supernatant. One tenth volume of a 1 M Tris pH 9.0 solution was added in order to restore the pH. Phages were finally titred in both fractions (bound and unbound) and the rest of the bound fraction was used to infect XL1 MRF′ Bacteria (Stratagene) following described procedures (24). The day after, cells were scraped and phages were amplified using helper phage M13K07 (Pharmacia) using the manufacturer's procedures.
(§7) When an increase in the number of trapped clones was observed, phages where purified as single clones and colony-PCR was performed using phage primers, forward: 5′ATG AAA AAG TCT TTA GTC CTC3′ and reverse: 5′CAG CTT GAT ACC GAT AGT TGC3′. The PCR products were then purified and sequenced using the same primers. Sequences were read in both direction using SeqmanII Software.

[5] = biological target: T4, PTP-Sap1DA (Homo sapiens, UniProt Q9HD43, D986A); experiment: SPOT analysis, membrane peptides probed with radiolabeled PTP; assay type: binding
T4 construct: specific primers corresponding to the beginning and the end of the catalytic domain of every PTPs were used; made in house; host or cells: Escherichia coli BL21 (codon +)
T4 sequence (Q9HD43 820-1079 D986A limits assumed): T1 sequence (Q9HD43 820-1079 D986A limits assumed)
Method: as §2, §3, §4

[6] = biological target: T5, WT PTP1B (Homo sapiens, UniProt P18031); experiment: Dephosphorylation assay on GST-PEP constructs; assay type: biochemical; settings: not shown
T5 construct: These two restriction sites were used to clone the catalytic domain in frame into a pGEX4TK vector (Pharmacia); GST (N); made in house; host or cells: Escherichia coli BL21 (codon +)
T5 sequence (P18031 3-277 limits assumed): T2 sequence (P18031 3-277 D181A limits assumed) with A179D
Method: PEP-GST constructs were prepared as follows: the primers used correspond to the pVIII capsid sequence of M13+two restriction sites (XhoI and NotI): 5′TATCTCGAGTCTTTCGCTGCTGAGGGT GA3′ for the sense and 5′ATAGCGGCCGCTTGCAGGGAGTCAAAGGCC G3′ for the antisense. The DNA of the phage was directly amplified by adding 10^9 phages to the PCR mix. After PCR using Herculase Polymerase (Stratagene), the DNA fragments (100 bp) were purified using Microcon® PCR (Millipore) and gel extraction was performed with Utrafree®-DA (Millipore). The cloning and the protein purification were finally accomplished following the same protocol as for the PTPs, with the only difference that TKB1 (Stratagene) bacteria were transformed and a single colony was grown and induced for protein production and phosphorylation exactly as described by the manufacturer. Again, all constructs were checked by DNA sequencing before protein production.
100 ng of PEP-GST construct was incubated with 10 ng of PTP wild type in PTP buffer (50 mM Hepes pH 7.4, 0.05% Nonidet NP-40 and 1 mM DTT). The reaction was stopped by mixing equal volume aliquots with a solution of 50 mM vanadate at different laps of time. […]

[7] = biological target: T3, PTP1B trapping mutant; experiment: ELISA of phosphorylated phage clones on coated GST-PTP; assay type: binding; settings: PTP1B selected phage clones, src-phosphorylated
Method: as §1

[8] = biological target: T6, Sap1 (Homo sapiens, UniProt Q9HD43); experiment: Km of example phosphopeptide substrates (Table IX summary); assay type: biochemical; settings: phosphopeptide as Sap1 substrate
T6 sequence (Q9HD43 820-1079 limits assumed): T1 sequence (Q9HD43 820-1079 D986A limits assumed) with A167D

[9] = biological target: SHP1 (Homo sapiens, UniProt P29350); settings: reference (40); cited from earlier work
Chain of SHP1 (P29350 whole entry): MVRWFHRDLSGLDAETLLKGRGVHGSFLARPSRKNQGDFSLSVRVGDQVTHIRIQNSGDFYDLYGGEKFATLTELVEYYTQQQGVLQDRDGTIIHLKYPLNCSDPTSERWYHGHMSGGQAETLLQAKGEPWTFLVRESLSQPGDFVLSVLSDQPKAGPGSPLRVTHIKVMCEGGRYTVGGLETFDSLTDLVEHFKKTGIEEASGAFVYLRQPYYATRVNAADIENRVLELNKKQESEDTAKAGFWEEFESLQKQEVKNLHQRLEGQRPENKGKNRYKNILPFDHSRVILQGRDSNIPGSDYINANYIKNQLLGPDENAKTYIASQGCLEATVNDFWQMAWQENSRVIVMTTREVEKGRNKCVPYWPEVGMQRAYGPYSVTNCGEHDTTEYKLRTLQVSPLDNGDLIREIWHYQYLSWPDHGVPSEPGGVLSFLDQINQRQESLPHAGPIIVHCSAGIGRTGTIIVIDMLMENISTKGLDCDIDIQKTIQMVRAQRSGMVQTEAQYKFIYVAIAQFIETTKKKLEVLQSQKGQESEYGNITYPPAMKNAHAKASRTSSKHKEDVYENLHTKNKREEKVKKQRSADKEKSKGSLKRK

[10] = biological target: T1, PTP-Sap1; experiment: Panning of the tyrosine-biased phage library and sequencing of trapped clones; assay type: binding; settings: after three rounds, sequenced trapped phages
Method: as §5, §6, §7

Molecule: EFpYGPVASDASDPAK (EF[pY]GPVASDASDPAK) [x58]
- ELISA [1]: recognized in ELISA

Molecule: EFpYGQIGDHLVDPAK (EF[pY]GQIGDHLVDPAK) [Sm-11]
- SPOT binding to PTP-Sap1 R88N [2]: strongest signals

Molecule: EFATpYEEYALMDPAK (EFAT[pY]EEYALMDPAK) [Clone 1b-12]
- SPOT binding to PTP1B trapping mutant, double phosphorylated peptide [3]: did not seem to react as well as single ones

Molecule: EFLpYANVERSSDPAK (EFL[pY]ANVERSSDPAK) [Sm-8]
- SPOT binding to PTP-Sap1 R88N [2]: did not bind
- SPOT binding to PTP-Sap1 R88N ([2]; listed as sm-8): not recognized

Molecule: EFpYGTYRGQDSDPAK (EF[pY]GTYRGQDSDPAK) [Clone 1b-14]
- Copy in the pool [4]: 2×

Molecule: EFGATpYGVYTSDPAK (EFGAT[pY]GVYTSDPAK) [Sm-2]
- SPOT binding to PTP-Sap1 R88N [2]: strongest signals

Molecule: EFpYGQFpYGPPQDPAK (EF[pY]GQF[pY]GPPQDPAK) [x2]
- SPOT binding to PTP-Sap1DA ([5]; 15-mer peptides with phosphotyrosine on membrane): comparable SPOT results for both phosphorylated Tyrosines

Molecule: EFpYATYGSAATDPAK (EF[pY]ATYGSAATDPAK) [Clone 1b-1]
- Dephosphorylation of displayed peptide (GST fusion) by WT PTP1B [6]: can dephosphorylate the displayed peptide
- SPOT binding to PTP1B trapping mutant, double phosphorylated peptide [3]: did not seem to react as well as single ones
- Copy in the pool [4]: 4×

Molecule: EFpYNLYEGVMSDPAK (EF[pY]NLYEGVMSDPAK) [Clone 1b-9]
- ELISA [7]: not found in ELISA
- SPOT binding to PTP1B trapping mutant [3]: confirmed in SPOT

Molecule: EFIpYGSFHQTADPAK (EFI[pY]GSFHQTADPAK) [Sm-15]
- SPOT binding to PTP-Sap1 R88N [2]: strongest signals

Molecule: EFpYGAFA/G (chain 1 EF[pY]GAFA; chain 2 EF[pY]GAFG)
- Km [8]: 7 µM

Molecule: EFQSPVpYGNFADPAK (EFQSPV[pY]GNFADPAK) [Clone 1b-11]
- SPOT binding to PTP1B trapping mutant [3]: All except two sequences (1b-6 and 1b11) were recognized

Molecule: O.O.O.O.O.O.O.O.O.O=C([O-])[C@@H]1[O][Sb]2([O-])([O][Sb]34([OH])[O][C@H]([C@H](O)CO)[C@H]([O]3)[C@H](C(=O)[O-])[O]4)[O][C@H]([C@H](O)CO)[C@@H]1[O]2.[Na+].[Na+].[Na+] [sodium stibogluconate]
- Inhibition of SHP1 [9]: strongly inhibits

Molecule: EFpYGTFAPKPLDPAK (EF[pY]GTFAPKPLDPAK) [Clone 1b-13]
- SPOT binding to PTP1B trapping mutant [3]: signal is weaker

Molecule: EFEPIpYNAYQVDPAK (EFEPI[pY]NAYQVDPAK) [Clone 1b-6]
- SPOT binding to PTP1B trapping mutant [3]: All except two sequences (1b-6 and 1b11) were recognized

Molecule: EFpYGTFAQSAEDPAK (EF[pY]GTFAQSAEDPAK) [x9]
- Copy in the pool [10]: 3X

Molecule: EFpYGAYSNADLDPAK (EF[pY]GAYSNADLDPAK) [x5]
- ELISA [1]: strongest
- SPOT binding to PTP-Sap1DA, doubly phosphorylated ([5]; doubly phosphorylated sequence): weaker signal
- Copy in the pool [10]: 2X

Molecule: EFQpYZGEYTRGDPAK (EFQ[pY]XGEYTRGDPAK; not fully specified (residue 5)) [Clone 1b-4]
- ELISA [7]: not found in ELISA
- SPOT binding to PTP1B trapping mutant [3]: confirmed in SPOT; also recorded: best substrate in this assay
- SPOT binding to PTP1B trapping mutant, double phosphorylated peptide [3]: binding became more efficient

— patent US20060241020A1, “Protein tyrosine phosphatase inhibitors” (Applied Research Systems ARS Holdings N.V., priority 2002, published 2006)
